Columns and labels:
[1] = target: T1, recombinant hHSPA8-CT (C-terminal fragment 385-647, SBD; 6xHis-Sumo) (human, UniProt P11142 385-646); test: negative staining immunogold EM; RIP3 fibrils with HSPA8-SBD on grids; anti-HSPA8 antibody 1:100, anti-rabbit gold-conjugated antibody; settings: both partners purified
T1 construct: human HSPA8 C-terminal fragment, residues 385-647 as printed; also called HSPA8-SBD; HSPA8 SBD domain; source: E. coli BL21 (DE3), purified (Ni-NTA, Superdex 200)

[2] = target: T2, GST-tagged HSPA8-SBD domain (GST-HSPA8-SBD 385-647) ( (human or mouse cDNA cloned), UniProt P11142 385-646); test: pull-down; His pull-down on Ni-NTA; His-Sumo-RIP3(388-518)-4A as bait, GST-HSPA8-SBD as prey; mixed 1:1 (50 uM each) for 6 h at 4 C; settings: both partners purified
T2 construct: The plasmid methods name only 6xHis-Sumo constructs for E. coli; the GST construct is not described there; source: E. coli, purified

[3] = target: the molecule itself; test: seeded fibril growth assay (ThT fluorescence, negative-stain EM, pelleting); sonicated fibril seeds (0.5 uM) with monomers (5 uM), with or without HSPA8 (5 uM); 30 C by the methods, 37 C for 2 h by the legend of Fig. 3c; fibrils pelleted at 12,000 g

T2 sequence (P11142 385-646): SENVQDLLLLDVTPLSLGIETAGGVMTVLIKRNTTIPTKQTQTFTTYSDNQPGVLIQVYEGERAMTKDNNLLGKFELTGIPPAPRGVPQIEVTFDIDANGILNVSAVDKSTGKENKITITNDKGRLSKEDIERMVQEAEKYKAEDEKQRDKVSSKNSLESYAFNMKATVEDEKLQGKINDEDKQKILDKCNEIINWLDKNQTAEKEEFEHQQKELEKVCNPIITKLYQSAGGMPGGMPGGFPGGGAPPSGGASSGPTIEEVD
T1 sequence (P11142 385-646): as above

Row | Binder | binding result [3] | also measured
1 | hRIP3(388-518) tagged with 6xHis-Sumo (RIP3 fibrils of Fig. 4) (domain or fragment, human, UniProt Q9Y572 388-518, looked up, human RIP3 residues 388-518; also called RIP3 amyloids; source: E. coli BL21 (DE3), purified (Ni-NTA, Superdex 200)) SSDSMAQPPQTPETSTFRNQMPSPTSTGTPSPGPRGNQGAERQGMNWSCRTPEPNPVTGRPLVNIYNCSGVQVGDNNYLTMQQTTALPTWGLAPSGKGRGLQHPPPVGSQEGPKDPEAWSRPQGWYNHSGK |  | binding result [1]: binds
2 | His-Sumo-RIP3(388-518)-4A (domain or fragment, human, UniProt Q9Y572 388-518, looked up, human RIP3 residues 388-518 with the RHIM core VQVG replaced by AAAA; also called His-tagged RIP3-RHIM-4A; His-tagged RHIM-4A-containing RIP3 (388-518 aa); source: E. coli, purified) SSDSMAQPPQTPETSTFRNQMPSPTSTGTPSPGPRGNQGAERQGMNWSCRTPEPNPVTGRPLVNIYNCSGAAAADNNYLTMQQTTALPTWGLAPSGKGRGLQHPPPVGSQEGPKDPEAWSRPQGWYNHSGK |  | binding result [2]: binds
3 | QPLIIHHAQMVQLGLNNHMWNQ (peptide, UniProt Q8IUC6 677-698, looked up, TRIF residues 677-698; source: custom-made by WuXi AppTec) [TRIF(677-698)] | binds | 
4 | RIP1(497-582) (domain or fragment, human, UniProt Q13546 497-582, looked up, the reagents paragraph prints 498-582; two first limits printed (497 and 498); also called RIP1_((498-582)); source: recombinant, generated previously) MPSLHNIPVPETNYLGNTPTMPFSSLPPTDESIKYTIYNSTGIQIGAYNYMEIGGTSSSLLDSTNTNFKEEPAAKYQAIFDNTTSL | binds | 

— paper PMC10624691, “HSPA8 acts as an amyloidase to suppress necroptosis by inhibiting and reversing functional amyloid formation” (Cell Research, 2023)
